Measured values published in patent US7144988B2, “Method of structure-based drug design to create or improve modulators of IL-1 activity which bind to the interleukin-1 type 1 receptor” (Array Biopharma, Inc., priority 2002, dated 2006).

Molecular target: T1, IL1R2D (modified IL-1 type 1 receptor, amino acids 18 to 222) (Homo sapiens, UniProt P14778)
T1 construct: made in house; host or cells: Hi5 insect cells, recombinant baculovirus (made in Sf9)
T1 sequence (P14778 18-222): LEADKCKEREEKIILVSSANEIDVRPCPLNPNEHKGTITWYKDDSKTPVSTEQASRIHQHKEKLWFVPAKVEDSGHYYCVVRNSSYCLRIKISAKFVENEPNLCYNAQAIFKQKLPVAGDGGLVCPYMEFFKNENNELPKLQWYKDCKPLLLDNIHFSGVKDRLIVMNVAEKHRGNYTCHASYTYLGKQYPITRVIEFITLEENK
Assay: Binding affinity of ligands to modified IL-1 type 1 receptor IL1R2D

In the case of “IL-1ra: IL-1 receptor antagonist protein; competes with IL-1α and β for receptor binding”, the Kd is reported as ≥ 1 µM.
